Data reported in the RNAGym collection of RNA variant scans (doi:10.1073/pnas.2313332121).

B1: TPR t1 (parent)
chain: GACCAAUCUGCCCUCAGAGCUCGAGAACAUCUUCGGAUGCAGAGGAGGCAGGCUUCGGUGGCGCGAUAGCGCCAACGUCCUCAACCUCCAAUGCAUCCCACCACAUGAUGAUGCCUGAAGAGCCUUGGUUUUUUG

Variants of: B1
Test: polymerase ribozyme fitness, log enrichment relative to wild type (log ratio); higher = more active; in vitro selection for triplet polymerase activity
Method in brief: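 Each subunit of a heterodimeric triplet polymerase ribozyme was represented by a PCR-built, transcribed mutant library that underwent triplicate single-round in vitro selection with frozen incubation at −7 °C. Extended constructs were recovered by gel excision, streptavidin-bead capture and RT-PCR, and Illumina sequencing of input and output libraries kept genotypes with ≥10 input reads and ≥1 read per output. Fitness is the logarithm of genotype enrichment relative to wild-type enrichment, from inverse-variance-weighted replicate averages, with a logarithm base of 2.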

For A6U A75U C82A C115A U125A G128C, which “polymerase ribozyme fitness (log ratio)” value is on record?
Its value is -3.75.

With A6U A100C U106A as the variant, how does the “polymerase ribozyme fitness (log ratio)” value read?
The value was 0.0954.

For A6G U38G G47U G117A G120C, which “polymerase ribozyme fitness (log ratio)” value is on record?
The value was -5.06.

With U7A A29G G63U C98U as the variant, how does the “polymerase ribozyme fitness (log ratio)” value read?
The value was -3.67.

For U7A C88G, which “polymerase ribozyme fitness (log ratio)” value is on record?
The value was -0.397.

Which “polymerase ribozyme fitness (log ratio)” value does the source give for A6U G42U U87A C94A C123G here?
The value was -1.12.

With A6U C56U C97A as the variant, how does the “polymerase ribozyme fitness (log ratio)” value read?
Its value is -6.51.

For A6U G10A C15U A46C C53G G61U C79A C80U C115G A119G, which “polymerase ribozyme fitness (log ratio)” value is on record?
Its value is -4.07.

With U7A C11A G117A as the variant, how does the “polymerase ribozyme fitness (log ratio)” value read?
The value was -2.2.

With A6G G10C U112A as the variant, how does the “polymerase ribozyme fitness (log ratio)” value read?
The value was -0.0126.

Which “polymerase ribozyme fitness (log ratio)” value does the source give for A6G C123A here?
The value was 1.64.

With U7A C12U A46U G58A as the variant, how does the “polymerase ribozyme fitness (log ratio)” value read?
Its value is -0.311.

Which “polymerase ribozyme fitness (log ratio)” value does the source give for U7A C80U C99U C124G here?
Its value is -2.39.

For A6U A18U C76U, which “polymerase ribozyme fitness (log ratio)” value is on record?
Its value is -2.81.

With A6G C102A as the variant, how does the “polymerase ribozyme fitness (log ratio)” value read?
Its value is -1.96.

For A6U G48U C89A A105U, which “polymerase ribozyme fitness (log ratio)” value is on record?
Its value is -6.02.

With A6U A29U C101A G120C U133A as the variant, how does the “polymerase ribozyme fitness (log ratio)” value read?
Its value is -4.06.

With A6U G39A C88A as the variant, how does the “polymerase ribozyme fitness (log ratio)” value read?
The value was -1.23.

For U7A C73G C82G, which “polymerase ribozyme fitness (log ratio)” value is on record?
Its value is -1.56.

With A6G U7G G44U G58C G113A as the variant, how does the “polymerase ribozyme fitness (log ratio)” value read?
Its value is -0.812.

Which “polymerase ribozyme fitness (log ratio)” value does the source give for U7A C11G A37U G60U G93C here?
The value was -0.83.

Which “polymerase ribozyme fitness (log ratio)” value does the source give for A6U C8U C40U A43U G48C U132A here?
The value was -1.71.

With A6U A111C as the variant, how does the “polymerase ribozyme fitness (log ratio)” value read?
The value was -0.0776.

For U7A C12G A18G G44A G52U, which “polymerase ribozyme fitness (log ratio)” value is on record?
The value was -5.51.

Which “polymerase ribozyme fitness (log ratio)” value does the source give for A6G U7C A74C C80G U112G here?
The value was -6.27.

For A6U C11U G71C, which “polymerase ribozyme fitness (log ratio)” value is on record?
The value was -0.83.

With A6U C12U G23C G63U G120U as the variant, how does the “polymerase ribozyme fitness (log ratio)” value read?
Its value is -7.69.

With U7A A29G C64U C88A C104A as the variant, how does the “polymerase ribozyme fitness (log ratio)” value read?
The value was -1.32.

With U7A C8G G45A as the variant, how does the “polymerase ribozyme fitness (log ratio)” value read?
Its value is 0.548.

With A6G U9C C13G C89U A90U C94U A105U A121G as the variant, how does the “polymerase ribozyme fitness (log ratio)” value read?
The value was -2.84.

For A6U G77U U78C C86U G107C U112G, which “polymerase ribozyme fitness (log ratio)” value is on record?
The value was -5.66.

For A6U C11U C22U A41C, which “polymerase ribozyme fitness (log ratio)” value is on record?
The value was -5.83.

For A6U A29G G61U C89A A121G, which “polymerase ribozyme fitness (log ratio)” value is on record?
Its value is -0.882.

For A6U G48C C102U U131C, which “polymerase ribozyme fitness (log ratio)” value is on record?
Its value is -1.55.

With A6U G36U G71A G122U C124A as the variant, how does the “polymerase ribozyme fitness (log ratio)” value read?
Its value is -1.43.

For U7A C8U G60C, which “polymerase ribozyme fitness (log ratio)” value is on record?
The value was -0.91.

With A6U A37G C56U as the variant, how does the “polymerase ribozyme fitness (log ratio)” value read?
The value was 0.28.

With U7A C11U A27U A90C C98U as the variant, how does the “polymerase ribozyme fitness (log ratio)” value read?
Its value is -7.09.

For U7A C70A G71A, which “polymerase ribozyme fitness (log ratio)” value is on record?
The value was -2.52.

Which “polymerase ribozyme fitness (log ratio)” value does the source give for U7A A66G C73G C124A here?
Its value is 0.101.

With A6G G48A G71C G117A as the variant, how does the “polymerase ribozyme fitness (log ratio)” value read?
The value was -2.1.

For A6U C56U C72U, which “polymerase ribozyme fitness (log ratio)” value is on record?
Its value is 0.0866.

For A6U C31G G47A G61A A91U U112A, which “polymerase ribozyme fitness (log ratio)” value is on record?
The value was -7.45.

With U7A A50U C82U A111C as the variant, how does the “polymerase ribozyme fitness (log ratio)” value read?
The value was -1.72.

Which “polymerase ribozyme fitness (log ratio)” value does the source give for A6U C11U G47A A118U here?
Its value is -1.52.

With A6U C8G as the variant, how does the “polymerase ribozyme fitness (log ratio)” value read?
Its value is 0.868.

For A6U C8U, which “polymerase ribozyme fitness (log ratio)” value is on record?
Its value is 0.736.

With A6G U7A C53U C80G C101A as the variant, how does the “polymerase ribozyme fitness (log ratio)” value read?
Its value is -5.66.

For A6U A74C, which “polymerase ribozyme fitness (log ratio)” value is on record?
Its value is 0.0283.

With A6U A74U as the variant, how does the “polymerase ribozyme fitness (log ratio)” value read?
Its value is 0.241.

For A6U C53A C62A C97U G113A, which “polymerase ribozyme fitness (log ratio)” value is on record?
The value was -3.13.

For A6U G39U C53G A68G U96G, which “polymerase ribozyme fitness (log ratio)” value is on record?
The value was -7.34.

For A6U C20G C76U G113U, which “polymerase ribozyme fitness (log ratio)” value is on record?
Its value is -1.29.

With U7A C79G C123U as the variant, how does the “polymerase ribozyme fitness (log ratio)” value read?
Its value is 0.729.

Which “polymerase ribozyme fitness (log ratio)” value does the source give for A6U U7A A16C A46U C76A A84C A100C C124A here?
The value was -5.09.

For A6U A91U A121C C124A, which “polymerase ribozyme fitness (log ratio)” value is on record?
Its value is -0.453.

For A6U U54C C72U, which “polymerase ribozyme fitness (log ratio)” value is on record?
Its value is 0.695.

Which “polymerase ribozyme fitness (log ratio)” value does the source give for A6U G48U C56G C82A here?
Its value is -1.65.

Which “polymerase ribozyme fitness (log ratio)” value does the source give for A6U G71C here?
Its value is -0.895.

With A6U G42C A74C C79G C123G U125A as the variant, how does the “polymerase ribozyme fitness (log ratio)” value read?
The value was -2.83.

For U7A C64A A95C C101A C123U, which “polymerase ribozyme fitness (log ratio)” value is on record?
The value was -6.03.

With A6U C56A as the variant, how does the “polymerase ribozyme fitness (log ratio)” value read?
Its value is -0.282.

Which “polymerase ribozyme fitness (log ratio)” value does the source give for U7A A43U C70G here?
Its value is -6.28.

With U7A C114G as the variant, how does the “polymerase ribozyme fitness (log ratio)” value read?
The value was -2.07.

For U7A C114A, which “polymerase ribozyme fitness (log ratio)” value is on record?
The value was -1.29.

Which “polymerase ribozyme fitness (log ratio)” value does the source give for U7A C53A here?
The value was -0.0334.

With A6U C13A U21C G69A C82A as the variant, how does the “polymerase ribozyme fitness (log ratio)” value read?
The value was -2.61.

For A6G G36A, which “polymerase ribozyme fitness (log ratio)” value is on record?
Its value is -0.889.

Which “polymerase ribozyme fitness (log ratio)” value does the source give for U7A A37U U54G G127A G128U here?
The value was -3.62.

With A6U C22G A41C G71U as the variant, how does the “polymerase ribozyme fitness (log ratio)” value read?
Its value is -3.47.

With U7A C11A as the variant, how does the “polymerase ribozyme fitness (log ratio)” value read?
Its value is -0.042.

Which “polymerase ribozyme fitness (log ratio)” value does the source give for A6U G44U G61A A103U G122A C124G U125G here?
The value was -4.72.

Which “polymerase ribozyme fitness (log ratio)” value does the source give for A6U G60U here?
The value was -0.858.

For A6U G36C, which “polymerase ribozyme fitness (log ratio)” value is on record?
The value was -1.42.

With A6U G36U as the variant, how does the “polymerase ribozyme fitness (log ratio)” value read?
The value was -1.07.

Which “polymerase ribozyme fitness (log ratio)” value does the source give for A6U G48A C123A here?
Its value is 0.913.

Which “polymerase ribozyme fitness (log ratio)” value does the source give for U7A C86G A90C here?
The value was -1.43.

For A6U G71U G110A G127U U133G, which “polymerase ribozyme fitness (log ratio)” value is on record?
The value was -2.25.

Which “polymerase ribozyme fitness (log ratio)” value does the source give for A6U G48U G71C G117A here?
The value was -3.59.

Which “polymerase ribozyme fitness (log ratio)” value does the source give for U7A C12U U59C here?
The value was 0.392.

Which “polymerase ribozyme fitness (log ratio)” value does the source give for U7A A74G C85G here?
The value was -1.49.

With U7A C73G C80G as the variant, how does the “polymerase ribozyme fitness (log ratio)” value read?
The value was -6.07.

With A6U U109C C124A as the variant, how does the “polymerase ribozyme fitness (log ratio)” value read?
The value was -5.26.
